# In the supplement of paper PMC9112550, “Optimization of the antimicrobial peptide Bac7 by deep mutational scanning” (BMC Biology, 2022):
# Tested on: Escherichia coli TOP10
# Test: shrunken log2 fold change of peptide-encoding DNA abundance (4.5 h post-induction vs induction); higher = less antimicrobial activity (less host growth inhibition)
# Settings: time post-induction: 4.5 h; library: site-saturation at positions 5, 18, 19, 20
# 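Further: peptides expressed intracellularly from a pBAD plasmid library in pooled LB shake-flask culture, induced with 0.3% L-arabinose, DNA abundance read by NGS, three biological replicates, DESeq2 with apeglm shrinkage.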
row,Sequence,shrunken log2 fold change
1,RRIRTRPPRLPRPRPRPCVVPRP,-0.0223
2,RRIRHRPPRLPRPRPRPIDEPRP,0.142
3,RRIRFRPPRLPRPRPRPEEAPRP,0.253
4,RRIRCRPPRLPRPRPRPWWHPRP,-0.523
5,RRIRIRPPRLPRPRPRPDLHPRP,0.0268
6,RRIRMRPPRLPRPRPRPLYSPRP,-1.32
7,RRIRPRPPRLPRPRPRPIGNPRP,-0.0419
8,RRIRSRPPRLPRPRPRPDWFPRP,0.0986
9,RRIRNRPPRLPRPRPRPPDEPRP,1.28
10,RRIRARPPRLPRPRPRPDAIPRP,1.03
11,RRIRYRPPRLPRPRPRPWPPPRP,0.194
12,RRIRERPPRLPRPRPRPPRNPRP,0.0296
13,RRIRTRPPRLPRPRPRPPDRPRP,0.257
14,RRIRKRPPRLPRPRPRPMAFPRP,0.25
15,RRIRDRPPRLPRPRPRPKRRPRP,0.529
16,RRIRGRPPRLPRPRPRPMEAPRP,1.27
17,RRIRFRPPRLPRPRPRPFGKPRP,-0.00111
18,RRIRIRPPRLPRPRPRPFCMPRP,-0.4
19,RRIRRRPPRLPRPRPRPMFTPRP,0.0616
20,RRIRDRPPRLPRPRPRPVLKPRP,0.0359
21,RRIRPRPPRLPRPRPRPSSPPRP,-0.406
22,RRIRQRPPRLPRPRPRPKEWPRP,-0.00145

row,Sequence,shrunken log2 fold change
1,RRIRSRPPRLPRPRPRPMGIPRP,0.0414
2,RRIRGRPPRLPRPRPRPNARPRP,0.501
3,RRIRERPPRLPRPRPRPQAEPRP,-0.0297
4,RRIRPRPPRLPRPRPRPQNEPRP,-0.183
5,RRIRQRPPRLPRPRPRPNWGPRP,0.105
6,RRIRQRPPRLPRPRPRPQLIPRP,-0.237
7,RRIRVRPPRLPRPRPRPNSPPRP,-0.271
8,RRIRNRPPRLPRPRPRPQGLPRP,-0.109
9,RRIRHRPPRLPRPRPRPSIPPRP,-0.868
10,RRIRWRPPRLPRPRPRPLLEPRP,0.216
11,RRIRPRPPRLPRPRPRPFMEPRP,-0.554
12,RRIRMRPPRLPRPRPRPSFCPRP,-0.0778
13,RRIRVRPPRLPRPRPRPVAMPRP,0.0876
14,RRIRLRPPRLPRPRPRPLSVPRP,-0.0123
15,RRIRKRPPRLPRPRPRPRDIPRP,0.246
16,RRIRVRPPRLPRPRPRPQDRPRP,0.0443
17,RRIRMRPPRLPRPRPRPVRCPRP,0.117
18,RRIRERPPRLPRPRPRPNAHPRP,0.0249
19,RRIRARPPRLPRPRPRPLLLPRP,0.313
20,RRIRMRPPRLPRPRPRPDQSPRP,0.0283
21,RRIRHRPPRLPRPRPRPQSQPRP,-0.127
22,RRIRGRPPRLPRPRPRPPMLPRP,0.555

row,Sequence,shrunken log2 fold change
1,RRIRMRPPRLPRPRPRPATLPRP,0.132
2,RRIRGRPPRLPRPRPRPLTFPRP,0.077
3,RRIRCRPPRLPRPRPRPDLEPRP,-0.26
4,RRIRFRPPRLPRPRPRPRMIPRP,-0.517
5,RRIRSRPPRLPRPRPRPCCMPRP,-0.0571
6,RRIRARPPRLPRPRPRPIWEPRP,0.473
7,RRIRWRPPRLPRPRPRPFAMPRP,-0.148
8,RRIRCRPPRLPRPRPRPIYYPRP,-0.653
9,RRIRNRPPRLPRPRPRPHHCPRP,-0.0844
10,RRIRTRPPRLPRPRPRPTLGPRP,0.0554
11,RRIRNRPPRLPRPRPRPQWSPRP,0.129
12,RRIRGRPPRLPRPRPRPITDPRP,0.0223
13,RRIRARPPRLPRPRPRPQGVPRP,-0.128
14,RRIRRRPPRLPRPRPRPGGAPRP,0.492
15,RRIRPRPPRLPRPRPRPWDCPRP,-0.0719
16,RRIRFRPPRLPRPRPRPEYSPRP,5.84e-05
17,RRIRLRPPRLPRPRPRPKPDPRP,0.315
18,RRIRLRPPRLPRPRPRPPKIPRP,0.0251
19,RRIRARPPRLPRPRPRPHAMPRP,0.177
20,RRIRGRPPRLPRPRPRPVDVPRP,0.447
21,RRIRLRPPRLPRPRPRPGHKPRP,-0.275
22,RRIRSRPPRLPRPRPRPWVAPRP,0.0561

row,Sequence,shrunken log2 fold change
1,RRIRMRPPRLPRPRPRPTNEPRP,0.282
2,RRIRWRPPRLPRPRPRPKGRPRP,0.0214
3,RRIRLRPPRLPRPRPRPANRPRP,-0.133
4,RRIRVRPPRLPRPRPRPDDGPRP,0.0292
5,RRIRSRPPRLPRPRPRPYRAPRP,-0.019
6,RRIRYRPPRLPRPRPRPMWLPRP,-0.224
7,RRIRTRPPRLPRPRPRPMQGPRP,0.321
8,RRIRSRPPRLPRPRPRPEPAPRP,0.912
9,RRIRARPPRLPRPRPRPSQPPRP,-0.0248
10,RRIRARPPRLPRPRPRPPKVPRP,0.123
11,RRIRSRPPRLPRPRPRPAYAPRP,0.0867
12,RRIRFRPPRLPRPRPRPKIEPRP,-0.202
13,RRIRWRPPRLPRPRPRPQTFPRP,-0.293
14,RRIRYRPPRLPRPRPRPAKSPRP,-0.156
15,RRIRCRPPRLPRPRPRPFKRPRP,-0.219
16,RRIRKRPPRLPRPRPRPCRFPRP,0.0338
17,RRIRSRPPRLPRPRPRPRVGPRP,0.578
18,RRIRMRPPRLPRPRPRPNWVPRP,-0.0816
19,RRIRSRPPRLPRPRPRPNCMPRP,-0.0954
20,RRIRKRPPRLPRPRPRPEDHPRP,0.247
21,RRIRTRPPRLPRPRPRPIRSPRP,0.0601
22,RRIRDRPPRLPRPRPRPHIVPRP,-0.146

row,Sequence,shrunken log2 fold change
1,RRIRLRPPRLPRPRPRPQTPPRP,0.358
2,RRIRSRPPRLPRPRPRPQVPPRP,0.299
3,RRIRNRPPRLPRPRPRPLGWPRP,0.367
4,RRIRTRPPRLPRPRPRPVFRPRP,-0.516
5,RRIRWRPPRLPRPRPRPAARPRP,0.622
6,RRIRHRPPRLPRPRPRPQQWPRP,-0.178
7,RRIRCRPPRLPRPRPRPAANPRP,0.0789
8,RRIRMRPPRLPRPRPRPHKFPRP,0.0123
9,RRIRSRPPRLPRPRPRPCVPPRP,-0.0369
10,RRIRERPPRLPRPRPRPECRPRP,0.0354
11,RRIRRRPPRLPRPRPRPVVGPRP,0.487
12,RRIRGRPPRLPRPRPRPNFHPRP,0.611
13,RRIRWRPPRLPRPRPRPIDMPRP,0.0712
14,RRIRKRPPRLPRPRPRPMLLPRP,-0.0797
15,RRIRQRPPRLPRPRPRPTHFPRP,-0.0245
16,RRIRFRPPRLPRPRPRPRSMPRP,-0.408
17,RRIRRRPPRLPRPRPRPSFTPRP,0.0475
18,RRIRPRPPRLPRPRPRPGWTPRP,0.235
19,RRIRWRPPRLPRPRPRPYAAPRP,0.445
20,RRIRDRPPRLPRPRPRPGFDPRP,0.926
21,RRIRPRPPRLPRPRPRPNMWPRP,-0.084
